In US20140249052A1 (University of Washington, published 2014):

Target: T1, streptavidin (from Streptomyces avidinii, 50677, Sigma-Aldrich) (Streptomyces avidinii, UniProt P22629 37-163, limits assumed)
T1 construct: Commercial protein used as received
Experiment: graphene FET sensor, Langmuir fit of response against concentration; mixed monolayer (25% bio-GrBP5, 75% SS-GrBP5) washed before SA was added, BSA background
Experimental: A 20 μl drop of water was placed on the sensor and the resistance was allowed to equilibrate. The device was maintained in a hydration chamber at 100% humidity to prevent evaporation. Analyte was added to the static drop on the sensor in the appropriate concentrations, so that the total volume of the drop never exceeded 35μl. Data was collected from two distinct devices and each experiment was reproduced at least once. See supporting information for additional data.
By combining the anti-fouling properties of SS-GrBP5 with the biotinylated probe peptide, we created a sensor capable of selective detection of streptavidin in a bovine serum albumin solution. A mixed peptide monolayer consisting of 25% bio-GrBP5 and 75% SS-GrBP5 was formed in a single step from a solution with an overall concentration of 10 μg/ml. […] Guided by the results in FIG. 21, we introduced 5 μg/ml BSA to the sensor and detected no binding (FIG. 22C). We then introduced sequentially increasing concentrations of SA to the sensor, while maintaining the levels of BSA, and were able to reliably detect streptavidin at 100 ng/ml, although some signal was present at even lower concentrations (FIG. 22C). […] The overall stability of the bio-GrBP5 appears to have been improved by co-assembly with SS-GrBP5, displaying very high coverage and density. […]

T1 sequence (P22629 37-163 limits assumed): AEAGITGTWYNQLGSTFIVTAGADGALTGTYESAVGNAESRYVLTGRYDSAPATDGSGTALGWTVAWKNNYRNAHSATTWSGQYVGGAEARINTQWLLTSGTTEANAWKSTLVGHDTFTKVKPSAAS

B1: Bio-GrBP5 (biotin-graphite binding peptide fusion, Bio-IMVTESSDYSSY) (peptide)
peptide: IMVTESSDYSSY
HELM: PEPTIDE1{[O=C1N[C@H]2[C@H](CS[C@H]2CCCCC(=O)[*:2])N1].I.M.V.T.E.S.S.D.Y.S.S.Y}$$$$V2.0
SMILES: CC[C@H](C)[C@H](NC(=O)CCCC[C@@H]1SC[C@@H]2NC(=O)N[C@@H]21)C(=O)N[C@@H](CCSC)C(=O)N[C@H](C(=O)N[C@H](C(=O)N[C@@H](CCC(=O)O)C(=O)N[C@@H](CO)C(=O)N[C@@H](CO)C(=O)N[C@@H](CC(=O)O)C(=O)N[C@@H](Cc1ccc(O)cc1)C(=O)N[C@@H](CO)C(=O)N[C@@H](CO)C(=O)N[C@@H](Cc1ccc(O)cc1)C(=O)O)[C@@H](C)O)C(C)C
notes: Synthetic 12-mer with N-terminal biotin; In the assays it was self-assembled on graphite (nanowires or monolayer) or on a graphene FET sensor; also called biotinilated peptide; bio-GrBP5 peptide nanowires
- Kd: ~1.5 nM
